Source: US20230408517A1 (BIO TECHNE, published 2023)
Residue numbers refer to the chain shown, from its start.

B1: 1035240 (antibody, V domains shown)
VH: QVQLQQSGAELARPGASVKMSCKASGYTFTTYTMHWVKQRPGQGLEWIGYINPSSGYTNYNQKFKDKATLTADTSSSTAYMQLSSLTSEDSAVYYCARRNPLYAMDYWGQGTSVTVSS
VL: DIKMTQSPSSMYASLGERVTITCKASQDINSYLNWFQQKPGKSPKTLIYRANRLVDGVPSRFSGSGSGQDYSLTISSLEYEDMGIYYCLQYDEFPYTFGGGTKLEIK
B2: 1035224 (antibody, V domains shown)
VH: EVQLQQSGAEFVRPGALVKLSCKASGFNIKDDYMHWVKQRPEQGLEWIGWIDPENGNSIYDPKFQGKASITADTSSNTAYLQLSSLTSEDTAVYYCARGEYFGSGSFAYWGQGTLVTVSA
VL: QIVLTQSPAIMSASPGEKVTISCSASSSVSYMYWYQQKPGSSPKPWIYRTSNLASGVPARFSGSGSGTSYSLTISSMEAEDAATYYCQQYHSYPYMYTFGGGTKLEIK
B3: 1035752 (antibody, V domains shown)
VH: QVQLQQPGAELVRPGASVKMSCKASGYTFTSHSIHWVKQTPGQGLEWIGAVYPGNGDTSYYQKFKGKATLTADKSSSTAYMHLSSLTSEDSAVYYCARDGYSDYYAMDCWGQGTSVTVSS
VL: DIVMTQSQKFMSTSVGDRVSVTCKASQNVGTNVAWYQQKPGQSPKALIYSASYRYSGVPDRFTGSGSGTDFTLTINNVQSEDLAEYFCQQYNRYPWTFGGGTKLEIK
B4: 1035414 (antibody, V domains shown)
VH: QVQLKQSGAELVRPGASVKLSCKTSGYIFTSYWIHWVKQRSGQGLEWIARIYPGTGNTYYNEKFKGKATLTADKSSTTAYMQLSSLKSEDSAVYFCARGEDNLYYYAMDYWGQGTSVTVSS
VL: NIVLTQSPASLAVSLGQRATISCRASESVDSYGTSFMHWYQQKPGQPPKLLIYLASNLESGVPASFSGSGSRTDFTLTIDPVEADDAATYYCQQNNEDPWTFGGGTKLEIK
B5: 1035419 (antibody, V domains shown)
VH: B4 VH with V37I, N57S, Y60N, T77S, Y105F
VL: B4 VL with T34A, Y40C, S65R, N96Y
B6: 1035433 (antibody, V domains shown)
VH: QVQLQQSGPQLVRPGASVKISCKASGYSFTIYWMHWVQQRPGQGLEWIGMIDPSDSETRLNQKFKDKATLTVDKSSSTAYMQLSSPTSEDSAVYYCARRGDYNFDYWGQGTTLTVSS
VL: DIVMTQAAPSVPATPGESVSISCRSSKSLLHSNGNTYLYWFLQRPGQSPQLLIFRMSNLASGVPDRFSGSGSGTAFTLRISRVEAEDVGVYYCMQHLEYPYTFGGGTKLEIK
B7: 1035716 (antibody, V domains shown)
VH: EVLLQQSGPELVKPGASVKIPCKASGYTFTDYNMDWVKQSHGKSLEWIGDINPNNGGTIYNQKFKGKATLTVDKSSSTAYMELRSLTSEDTAVYYCAREGYGNYFDYWGQGTTLTVSS
VL: DILLTQSPAILSVSPGERVSFSCRASQSIGTSIHWYQQRTNGSPRLLIKYASESISGIPSRFSGSGSGTDYTLSINSVESEDIADYYCQQSYSWPTTFGAGTKLELK
B8: 1035423 (antibody, V domains shown)
VH: EVKLEESGGGLVQPGGSMKLSCTASGFTFSDAWMDWVRQSPEKGLEWVAEIRNKANNHATYYAESVKGRFTISRDDSKSSVYLQMNSLRAEDTGIYYCILFITYAMDYWGQGTSVTVSS
VL: DIVLTQSQKFMSTSVGDRVSITCKASQNVRTAVAWYQQKPGQSPKALIYLASNRHTGVPDRFTGSGSGTDFTLTISNVQSEDLADYFCLQHWNYPLTFGSGTKLELK

Each binder was assayed against T1, BSA (bovine, UniProt P02769) (assay: dipstick, adsorbed protein spots, Ab 10 µg/mL, GAM-AuNP).
T1 construct: also called bovine serum albumin
T1 sequence (P02769 25-607 limits assumed): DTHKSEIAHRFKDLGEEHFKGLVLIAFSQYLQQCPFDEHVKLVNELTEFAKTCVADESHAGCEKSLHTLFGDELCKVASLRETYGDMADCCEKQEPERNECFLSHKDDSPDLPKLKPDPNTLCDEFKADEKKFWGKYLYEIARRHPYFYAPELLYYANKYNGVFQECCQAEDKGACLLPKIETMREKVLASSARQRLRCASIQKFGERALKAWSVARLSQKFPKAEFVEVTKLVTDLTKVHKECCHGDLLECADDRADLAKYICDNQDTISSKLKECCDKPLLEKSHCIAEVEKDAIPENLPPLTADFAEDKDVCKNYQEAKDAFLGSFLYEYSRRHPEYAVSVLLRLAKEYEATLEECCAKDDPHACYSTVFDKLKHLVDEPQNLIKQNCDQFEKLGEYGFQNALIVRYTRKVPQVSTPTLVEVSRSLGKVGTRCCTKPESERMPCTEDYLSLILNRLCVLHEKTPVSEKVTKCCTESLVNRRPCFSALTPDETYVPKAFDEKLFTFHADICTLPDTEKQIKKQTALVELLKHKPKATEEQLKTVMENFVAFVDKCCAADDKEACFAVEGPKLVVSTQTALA
B1: no binding (tested: 10 µg/mL).

Each binder was assayed against T2, recombinant monomeric SARS-CoV-1 S1 protein (SARS-CoV-1, UniProt P59594 14-667) (assay: antigen-down ELISA, coated SARS-CoV-1 S1 titrated, Ab 1 µg/mL).
B2: no binding (tested: 400 ng coated (axis)).

Each binder was assayed against T3, recombinant his-tagged homotrimeric SARS-CoV-2 spike protein (SARS-CoV-2, UniProt P0DTC2 16-1211) (assay: flow cytometry, blocking of binding to hACE-2 cells).
B3 was tested, and the percent blocking was 91.8%.
Binder B4 has a percent blocking of 51.4%.
In the case of B5, the percent blocking is reported as 89%.
B6 showed a percent blocking of 82.5%.
B7 gave a percent blocking of 96.5%.
In the case of B1, the percent blocking is reported as 96.1%.
B8 showed a percent blocking of 91.6%.
B2 showed a percent blocking of 96.6%.

Molecular target: T2, recombinant monomeric SARS-CoV-1 S1 …
Assay: antigen-down ELISA, coated SARS-CoV-1 S1 titrated, Ab 1 µg/mL
Remark: another data set of the same source
B3: no binding (tested: 400 ng coated (axis)).

Each binder was assayed against T2, recombinant monomeric SARS-CoV-1 S1 … (assay: flow cytometry, blocking of binding to hACE-2 cells).
Work on B3 yielded a percent blocking of 0%.
For B4, the percent blocking was 12%.
Binder B5 has a percent blocking of 88.5%.
B6 gave a percent blocking of 0%.
B7 showed a percent blocking of 89.5%.
Work on B1 yielded a percent blocking of 0%.
B8 gave a percent blocking of 0%.
B2 gave a percent blocking of 0%.

Molecular target: T3, recombinant his-tagged homotrimeric …
Assay: as above
Remark: another data set of the same source
Binder B3 has a percent blocking of 91.8%.
B4 was tested, and the percent blocking was 51.4%.
With B5 the percent blocking was 89%.
For B6, the percent blocking was 82.5%.
B7 was tested, and the percent blocking was 96.5%.
With B1 the percent blocking was 96.1%.
B8 gave a percent blocking of 91.6%.
B2 gave a percent blocking of 96.6%.

The binders below were run against T4, SARS-CoV spike RBD (R306-F527), C-terminal 6-His (SARS-CoV, UniProt P59594 306-527) in the same assay as above.
B3 showed a percent blocking of 0%.
Work on B4 yielded a percent blocking of 0.4%.
B5 gave a percent blocking of 44.1%.
Work on B6 yielded a percent blocking of 0%.
Work on B7 yielded a percent blocking of 68.7%.
B1 was tested, and the percent blocking was 0%.
Work on B8 yielded a percent blocking of 0%.
Work on B2 yielded a percent blocking of 0%.

The binders below were run against T5, recombinant monomeric SARS-CoV-2 S1 protein, his-tagged (SARS-CoV-2, UniProt P0DTC2 16-681) in the same assay as above.
T5 construct: domain: S1
With B3 the percent blocking was 93.3%.
With B4 the percent blocking was 25.9%.
For B5, the percent blocking was 70.1%.
B6 gave a percent blocking of 9.3%.
B7 showed a percent blocking of 93.8%.
B1 gave a percent blocking of 56.5%.
B8 gave a percent blocking of 19.7%.
With B2 the percent blocking was 86.6%.

What follows are binders tested against T4, SARS-CoV spike RBD (R306-F527), … (assay: antigen-down ELISA, coated SARS-CoV-1 S1 RBD titrated, Ab 1 µg/mL).
B6: no binding (tested: 400 ng coated (axis)).

Molecular target: T2, recombinant monomeric SARS-CoV-1 S1 …
Assay: antigen-down ELISA, coated SARS-CoV-1 S1 titrated, Ab 1 µg/mL
Remark: another data set of the same source
B6: no binding (tested: 400 ng coated (axis)).

Molecular target: T2, recombinant monomeric SARS-CoV-1 S1 …
Assay: flow cytometry, blocking of binding to hACE-2 cells
Remark: another data set of the same source
With B3 the percent blocking was 0%.
For B4, the percent blocking was 12%.
With B5 the percent blocking was 88.5%.
B6 gave a percent blocking of 0%.
In the case of B7, the percent blocking is reported as 89.5%.
B1 was tested, and the percent blocking was 0%.
Work on B8 yielded a percent blocking of 0%.
Work on B2 yielded a percent blocking of 0%.

Molecular target: T4, SARS-CoV spike RBD (R306-F527), …
Assay: as above
Remark: another data set of the same source
With B3 the percent blocking was 0%.
In the case of B4, the percent blocking is reported as 0.4%.
B5 was tested, and the percent blocking was 44.1%.
With B6 the percent blocking was 0%.
B7 gave a percent blocking of 68.7%.
B1 gave a percent blocking of 0%.
B8 was tested, and the percent blocking was 0%.
With B2 the percent blocking was 0%.

Molecular target: T4, SARS-CoV spike RBD (R306-F527), …
Assay: antigen-down ELISA, coated SARS-CoV-1 S1 RBD titrated, Ab 1 µg/mL
Remark: another data set of the same source
B8: no binding (tested: 400 ng coated (axis)).

Each binder was assayed against T1, BSA (assay: dipstick, adsorbed protein spots, Ab 10 µg/mL (reference)).
B5: no binding (tested: 10 µg/mL).

Each binder was assayed against T4, SARS-CoV spike RBD (R306-F527), … (assay: dipstick, adsorbed RBD spots, Ab 10 µg/mL, GAM-AuNP).
B1: no binding (tested: 10 µg/mL).

Molecular target: T4, SARS-CoV spike RBD (R306-F527), …
Assay: antigen-down ELISA, coated SARS-CoV-1 S1 RBD titrated, Ab 1 µg/mL
Remark: another data set of the same source
B3: no binding (tested: 400 ng coated (axis)).

Molecular target: T5, recombinant monomeric SARS-CoV-2 S1 …
Assay: flow cytometry, blocking of binding to hACE-2 cells
Remark: another data set of the same source
B3 showed a percent blocking of 93.3%.
In the case of B4, the percent blocking is reported as 25.9%.
B5 was tested, and the percent blocking was 70.1%.
B6 showed a percent blocking of 9.3%.
Binder B7 has a percent blocking of 93.8%.
B1 showed a percent blocking of 56.5%.
Binder B2 has a percent blocking of 86.6%.

What follows are binders tested against T4, SARS-CoV spike RBD (R306-F527), … (assay: lateral flow NC50, RBD-AuNP vs immobilised ACE2).
B5 was tested, and the IC50 was 2.86 µg/mL.

Molecular target: T2, recombinant monomeric SARS-CoV-1 S1 …
Assay: antigen-down ELISA, coated SARS-CoV-1 S1 titrated, Ab 1 µg/mL
Remark: another data set of the same source
B8: no binding (tested: 400 ng coated (axis)).

Molecular target: T4, SARS-CoV spike RBD (R306-F527), …
Assay: dipstick, adsorbed RBD spots, Ab 10 µg/mL, GAM-AuNP
Remark: another data set of the same source
B2: no binding (tested: 10 µg/mL).

Molecular target: T2, recombinant monomeric SARS-CoV-1 S1 …
Assay: antigen-down ELISA, coated SARS-CoV-1 S1 titrated, Ab 1 µg/mL
Remark: another data set of the same source
B1: no binding (tested: 400 ng coated (axis)).
